Measured values: US5157106A, “N-terminal deletions of lymphotoxin, their preparation and use” (BASF Aktiengesellschaft, priority 1986, dated 1992)

Key:
[1] = test system: L929; assay: In vitro cytotoxic activity towards L929 (crystal violet stain, 48 h); type: cell-based; conditions: L929, 48 h; corrected by comparison with the control TNF standard
Experimental: 11. IN VITRO CYTOTOXIC ACTIVITY OF HUMAN RECOMBINANT LYMPHOTOXIN (LT) AND DELTA 23, DELTA 24 AND DELTA 25 LT MUTANTS TOWARDS THE TNF- AND LYMPHOTOXIN-SENSITIVE CELL LINES L929 AND WEHI-164
The substance was added the next day in 25 μl of complete culture medium per well. The initial concentration was 10 ng of protein per ml in each case; 2 duplicate titrations were carried out in series. The following controls were also set up on each culture plate: a) only culture medium; b) cells with culture medium but without lymphotoxin; c) a titrated TNF standard of known biological activity. After incubation for a further 48 h under the conditions indicated above, the surviving cells were stained with a solution of crystal violet (15 g of crystal violet, 7 g of NaCl, 646 ml of ethanol, 172.8 ml of 37% formaldehyde made up to 2 1 with H2 O. This entailed the culture medium being drained off and then the cells being stained with 50 μl of the solution at room temperature for 20 min. The culture plates were then washed with water until all the dyestuff which was not cell-bound had been removed. The cell-bound dyestuff was determined by photometry, after addition of 100 μl of measurement solution (50% ethanol, 0.1% acetic acid), at 540 nm using a Titertek Multiscan MCC/340 (Flow Laboratories, Meckenheim). […]

[2] = test system: primary cell cultures and normal cell lines; conditions: cited from earlier work
[3] = test system: MG-63 tumor cells; assay: Synergistic cytotoxic activity with recombinant interferon-gamma on tumor cells (72 h, crystal violet); conditions: for factor by which the cytotoxic effect induced by interferon-gamma alone is enhanced: 2 ng/ml interferon-gamma with 2 ng/ml lymphotoxin; for enhancement of the cytotoxicity induced by interferon-gamma (synergistic effect): mean of two independent experiments; for sensitivity / growth inhibition of MG-63 by the single substance: substance alone
Experimental: 2×10^3 cells in the exponential phase of growth were plated out in complete culture medium (RPMI 1640+10% FCS, both from Flow Laboratories, Meckenheim) in each well of a 96-well plate and were incubated overnight at 37° C. and 5% CO2 in an atmosphere saturated with water vapor. Then, maintaining the interferon-gamma (human recombinant) concentrations constant, the lymphotoxin or the lymphotoxin mutants were subjected to serial 5-fold dilution starting from a concentration of 10 ng/ml protein. The final volume was 150 μl in all the culture wells. Pure culture medium or cultivated cells without the addition of IFN-gamma and/or LT or LT mutants were used as controls. The culture plates were incubated for a further 72 h under the conditions indicated above and were then stained using the crystal violet stain as described under
The synergistic action of lymphotoxins with interferon-gamma was determined as follows:
a) the antiproliferative activity of interferon-gamma was determined from the optical densities of the samples by the following formula: [formula]
b) Determination of the cytotoxic activity of the combination of interferon-gamma and lymphotoxin using formula A.
c) Determination of the synergistic effect of lymphotoxins with interferon-gamma: [formula]
The figures given in the Table were determined as explained above under 12a to 12c and represent the means of two independent experiments.

[4] = test system: Balb/c mice; assay: Determination of acute toxicity, intravenous; type: in vivo
Experimental: Male Balb/c mice from 4 to 6 weeks of age were used to determine the acute toxicity of the substances under investigation. The animals were randomized (5 animals in each group) and, following a one-week acclimatization period, they received various doses of the test substance (0.25-4.0 mg/kg body weight intravenously, injected into one of the lateral caudal veins). The volume administered was 10 ml/kg body weight; the injection was administered over a period of 10 seconds. The substances had been dissolved in physiological saline solution which contained 0.2% BSA (bovine serum albumin) immediately before the intravenous injection. Animals which received intravenous administration of 10 ml of physiological saline solution per kg of body weight, with 0.2% BSA, acted as controls. […] The following signs were noted: diarrhea, diminished locomotion, piloerection, cyanosis and death; in addition, the body temperature and weight of the animals were determined at regular intervals.

[5] = in vivo studies; cited from earlier work

Molecule | Activity (one unit = amount which induces 50% lysis of the given number of cells) [1] | cytotoxic activity [2] | factor by which the cytotoxic effect induced by interferon-gamma alone is enhanced ([3]; first measurement) | factor by which the cytotoxic effect induced by interferon-gamma alone is enhanced ([3]; second measurement) | enhancement of the cytotoxicity induced by interferon-gamma (synergistic effect) ([3]; IFN-gamma 0.4 ng/ml, lymphotoxin 0.016 ng/ml) | enhancement of the cytotoxicity induced by interferon-gamma (synergistic effect) ([3]; IFN-gamma 0.4 ng/ml, lymphotoxin 0.08 ng/ml) | enhancement of the cytotoxicity induced by interferon-gamma (synergistic effect) ([3]; IFN-gamma 0.4 ng/ml, lymphotoxin 0.4 ng/ml) | enhancement of the cytotoxicity induced by interferon-gamma (synergistic effect) ([3]; IFN-gamma 0.4 ng/ml, lymphotoxin 2 ng/ml) | enhancement of the cytotoxicity induced by interferon-gamma (synergistic effect) ([3]; IFN-gamma 0.4 ng/ml, lymphotoxin 10 ng/ml) | enhancement of the cytotoxicity induced by interferon-gamma (synergistic effect) ([3]; IFN-gamma 2.0 ng/ml, lymphotoxin 0.016 ng/ml) | enhancement of the cytotoxicity induced by interferon-gamma (synergistic effect) ([3]; IFN-gamma 2.0 ng/ml, lymphotoxin 0.08 ng/ml) | enhancement of the cytotoxicity induced by interferon-gamma (synergistic effect) ([3]; IFN-gamma 2.0 ng/ml, lymphotoxin 0.4 ng/ml) | enhancement of the cytotoxicity induced by interferon-gamma (synergistic effect) ([3]; IFN-gamma 2.0 ng/ml, lymphotoxin 2 ng/ml) | enhancement of the cytotoxicity induced by interferon-gamma (synergistic effect) ([3]; IFN-gamma 2.0 ng/ml, lymphotoxin 10 ng/ml) | sensitivity / growth inhibition of MG-63 by the single substance [3] | time at which signs were detectable (as early as) ([4]; after the injection, especially at higher doses) [h] | severity of observed signs compared between substances ([4]; intravenous) | signs observed after injection ([4]; intravenous, 0.25-4.0 mg/kg) | reversibility of signs ([4]; surviving animals, within the 7-day observation period) | antitumor effect [5]
LT: lymphotoxin comparison substance, cloned and expressed in E. coli; product was a mixture of lymphotoxin derivatives (protein, UniProt P01374 35-205, looked up) Lymphotoxin-alpha: LPGVGLTPSAAQTARQHPKMHLAHSTLKPAAHLIGDPSKQNSLLWRANTDRAFLQDGFSLSNNSLLVPTSGIYFVYSQVVFSGKAYSPKATSSPLYLAHEVQLFSSQYPFHVPLLSSQKMVYPGLQEPWLHSMYHGAAFQLTQGDQLSTHTDGIPHLVLSPSTVFFGAFAL | 6.1 × 10^7 U/mg protein | less or nonexistent | 1.57 | 1.41 | 1.42 | 1.87 | 1.75 | 1.89 | 2.16 | 1.15 | 1.27 | 1.40 | 1.49 | 1.61 | not sensitive to lymphotoxin alone | 2 | most pronounced | dose- and time-dependent reduction in body temperature and weight and in locomotion, and induced piloerection and diarrhea | completely reversible in the surviving animals | effective antitumor agent
interferon-gamma: human recombinant interferon-gamma (protein, UniProt P01579 24-161, looked up) Interferon gamma: QDPYVKEAENLKKYFNAGHSDVADNGTLFLGILKNWKEESDRKIMQSQIVSFYFKLFKNFKDDQSIQKSVETIKEDMNVKFFNSNKKKRDDFEKLTNYSVTDLNVQRKAIHELIQVMAELSPAAKTGKRKRSQMLFRG | – | – | – | – | – | – | – | – | – | – | – | – | – | – | growth is inhibited dosedependently | – | – | – | – | –
